Assay results from paper PMC8881611, “A mechanism of origin licensing control through autoinhibition of S. cerevisiae ORC·DNA·Cdc6” (Nature Communications, 2022).

Key:
Experiment in all cases: pull-down; amylose pulldown, ORC with MBP-tagged Orc4 as bait; 0.5 uM ScORC, 0.5 uM 84 bp ARS1 dsDNA, 1 uM ScCdc6, 10 uM ScMcm7 (titrations 1.5, 5, 10 uM), 2 mM ATPγS; 25 mM HEPES pH 7.5, 300 mM potassium acetate, 10 mM magnesium acetate, 1 mM DTT; on ice; maltose elution, Coomassie-stained SDS-PAGE
Settings in all cases: both partners purified
[1] = biological target: T1, ScORC·DNA·Cdc6 with MBP-tagged ORC holding Orc6 ΔCBN (Orc6Δ1-120), ORC phosphorylated by CDK (S. cerevisiae, UniProt P54784 1-914; P32833 1-620; P54790 1-616; P54791 1-529; P50874 1-479; P38826 …, ORC treated with CDK; phosphorylated sites not printed | ORC treated with CDK; phosphorylated sites not given)
T1 construct: Orc1, S. cerevisiae, wild type; Orc2, S. cerevisiae, wild type; Orc3, S. cerevisiae, wild type; Orc4, S. cerevisiae, wild type; Orc5, S. cerevisiae, wild type; Orc6, S. cerevisiae, truncation Orc6Δ1-120 (lacks the N-terminal cyclin box fold); Cdc6, S. cerevisiae, wild type; ORC phosphorylated by CDK before assembly with DNA, Cdc6 and ATPγS; also called Orc6 ΔCBN, CDK; Orc6^ΔN120; source: MBP-ORC: …

[2] = biological target: T2, ScORC·DNA·Cdc6 with MBP-tagged ORC holding Orc6 ΔCBN (Orc6Δ1-120), ORC untreated (S. cerevisiae, UniProt P54784 1-914; P32833 1-620; P54790 1-616; P54791 1-529; P50874 1-479; P38826 …)
T2 construct: Orc1, S. cerevisiae, wild type; Orc2, S. cerevisiae, wild type; Orc3, S. cerevisiae, wild type; Orc4, S. cerevisiae, wild type; Orc5, S. cerevisiae, wild type; Orc6, S. cerevisiae, truncation Orc6Δ1-120 (lacks the N-terminal cyclin box fold); Cdc6, S. cerevisiae, wild type; The unstructured linker region of Orc6ΔCBN is prone to proteolytic cleavage during expression and purification; also called …

[3] = biological target: T3, ScORC·DNA·Cdc6 with MBP-tagged ORC holding Orc6 ΔCBN/Δlinker (Orc6Δ1-269), ORC untreated (S. cerevisiae, UniProt P54784 1-914; P32833 1-620; P54790 1-616; P54791 1-529; P50874 1-479; P38826 …)
T3 construct: Orc1, S. cerevisiae, wild type; Orc2, S. cerevisiae, wild type; Orc3, S. cerevisiae, wild type; Orc4, S. cerevisiae, wild type; Orc5, S. cerevisiae, wild type; Orc6, S. cerevisiae, truncation Orc6Δ1-269 (lacks the N-terminal cyclin box fold and the flexible linker); Cdc6, S. cerevisiae, wild type; also called Orc6^ΔN269; source: MBP-ORC: High5 insect cells, purified (no TEV cleavage); Cdc6: …

[4] = biological target: T4, ScORC·DNA·Cdc6 with MBP-tagged ORC holding Orc6 ΔCBN (Orc6Δ1-120), ORC dephosphorylated with λ phosphatase (S. cerevisiae, UniProt P54784 1-914; P32833 1-620; P54790 1-616; P54791 1-529; P50874 1-479; P38826 …, ORC treated with λ phosphatase | ORC treated with λ phosphatase)
T4 construct: Orc1, S. cerevisiae, wild type; Orc2, S. cerevisiae, wild type; Orc3, S. cerevisiae, wild type; Orc4, S. cerevisiae, wild type; Orc5, S. cerevisiae, wild type; Orc6, S. cerevisiae, truncation Orc6Δ1-120 (lacks the N-terminal cyclin box fold); Cdc6, S. cerevisiae, wild type; ORC dephosphorylated before assembly with DNA, Cdc6 and ATPγS; also called Orc6 ΔCBN, λ phosphatase; Orc6^ΔN120; source: …

[5] = biological target: T5, ScORC·DNA·Cdc6 with MBP-tagged ORC holding Orc6 ΔCBN/Δlinker (Orc6Δ1-269), ORC phosphorylated by CDK (S. cerevisiae, UniProt P54784 1-914; P32833 1-620; P54790 1-616; P54791 1-529; P50874 1-479; P38826 …, ORC treated with CDK; phosphorylated sites not given)
T5 construct: Orc1, S. cerevisiae, wild type; Orc2, S. cerevisiae, wild type; Orc3, S. cerevisiae, wild type; Orc4, S. cerevisiae, wild type; Orc5, S. cerevisiae, wild type; Orc6, S. cerevisiae, truncation Orc6Δ1-269 (lacks the N-terminal cyclin box fold and the flexible linker); Cdc6, S. cerevisiae, wild type; ORC phosphorylated by CDK before assembly with DNA, Cdc6 and ATPγS; also called Orc6 ΔCBN/Δlinker, …

- binding result [1]: binds
- binding result [2]: binds
- binding result [3]: binds
- binding result [4]: binds
- binding result [5]: binds
B1: S. cerevisiae Mcm7 (ScMcm7) (natural protein, UniProt P38132 1-845, looked up)
chain: MSAALPSIQLPVDYNNLFNEITDFLVTFKQDTLSSDATRNENEDENLDAENIEQHLLEKGPKYMAMLQKVANRELNSVIIDLDDILQYQNEKFLQGTQADDLVSAIQQNANHFTELFCRAIDNNMPLPTKEIDYKDDVLDVILNQRRLRNERMLSDRTNEIRSENLMDTTMDPPSSMNDALREVVEDETELFPPNLTRRYFLYFKPLSQNCARRYRKKAISSKPLSVRQIKGDFLGQLITVRGIITRVSDVKPAVEVIAYTCDQCGYEVFQEVNSRTFTPLSECTSEECSQNQTKGQLFMSTRASKFSAFQECKIQELSQQVPVGHIPRSLNIHVNGTLVRSLSPGDIVDVTGIFLPAPYTGFKALKAGLLTETYLEAQFVRQHKKKFASFSLTSDVEERVMELITSGDVYNRLAKSIAPEIYGNLDVKKALLLLLVGGVDKRVGDGMKIRGDINVCLMGDPGVAKSQLLKAICKISPRGVYTTGKGSSGVGLTAAVMKDPVTDEMILEGGALVLADNGICCIDEFDKMDESDRTAIHEVMEQQTISISKAGINTTLNARTSILAAANPLYGRYNPRLSPLDNINLPAALLSRFDILFLMLDIPSRDDDEKLAEHVTYVHMHNKQPDLDFTPVEPSKMREYIAYAKTKRPVMSEAVNDYVVQAYIRLRQDSKREMDSKFSFGQATPRTLLGIIRLSQALAKLRLADMVDIDDVEEALRLVRVSKESLYQETNKSKEDESPTTKIFTIIKKMLQETGKNTLSYENIVKTVRLRGFTMLQLSNCIQEYSYLNVWHLINEGNTLKFVDDGTMDTDQEDSLVSTPKLAPQTTASANVSAQDSDIDLQDA
notes: Mcm7, S. cerevisiae; migrates as a doublet on SDS-PAGE; source: E. coli BL21 RIL, purified (HisTrap, amylose, TEV cleavage, HisTrap, gel filtration); not shown: His6, N-terminal, cleaved; MBP, N-terminal, cleaved
